{"source": "paper PMC3515690", "about": "(Nature structural & molecular biology, 2012)", "binders": {"B1": {"name": "Atg7 (residues 1–613) (enzyme, S. cerevisiae, UniProt P38862 1-613, looked up)", "chain": "MSSERVLSYAPAFKSFLDTSFFQELSRLKLDVLKLDSTCQPLTVNLDLHNIPKSADQVPLFLTNRSFEKHNNKRTNEVPLQGSIFNFNVLDEFKNLDKQLFLHQRALECWEDGIKDINKCVSFVIISFADLKKYRFYYWLGVPCFQRPSSTVLHVRPEPSLKGLFSKCQKWFDVNYSKWVCILDADDEIVNYDKCIIRKTKVLAIRDTSTMENVPSALTKNFLSVLQYDVPDLIDFKLLIIRQNEGSFALNATFASIDPQSSSSNPDMKVSGWERNVQGKLAPRVVDLSSLLDPLKIADQSVDLNLKLMKWRILPDLNLDIIKNTKVLLLGAGTLGCYVSRALIAWGVRKITFVDNGTVSYSNPVRQALYNFEDCGKPKAELAAASLKRIFPLMDATGVKLSIPMIGHKLVNEEAQHKDFDRLRALIKEHDIIFLLVDSRESRWLPSLLSNIENKTVINAALGFDSYLVMRHGNRDEQSSKQLGCYFCHDVVAPTDSLTDRTLDQMCTVTRPGVAMMASSLAVELMTSLLQTKYSGSETTVLGDIPHQIRGFLHNFSILKLETPAYEHCPACSPKVIEAFTDLGWEFVKKALEHPLYLEEISGLSVIKQEVER", "modifications": "catalytic Cys507 linked through bismaleimidoethane (BMOE) to Atg3 Cys234"}, "B2": {"name": "Atg7(1–613 C39S C195S C375A) (enzyme, S. cerevisiae, UniProt P38862 1-613, looked up)", "chain": "B1 chain with C39S, C195S, C375A", "modifications": "catalytic Cys507 linked through bismaleimidoethane (BMOE) to Atg10 Cys133"}, "B3": {"name": "Atg10 (Cys133only, with C26A and C137A) (enzyme, S. cerevisiae, UniProt Q07879 1-167, looked up)", "chain": "MIPYQEWHSQLQSLYDSQIFHNWALAQDVHLNDEKDGLLLRLIPTRQLQKNTERIENKLLNHIELYLTYSKVYNEPLLLLRIWEEKSIDGIPMTKLMLPTDIESLLDVQGKFQLGLDTIINLEGSVWYSFHPCDTSAIVGDQAEFMSTYLRRWVSIFIFSWLGYEDS", "modifications": "Cys133 reacted with bismaleimidoethane (BMOE)"}}, "key": {"crystal structure [1]": {"target": "the molecule itself", "experiment": "crystal structure"}, "crystal structure [2]": {"target": "the molecule itself", "experiment": "crystal structure", "remark": "listed apart in the source"}, "[3]": {"target": "T1, Atg7 with residues 290–294 deleted (S. cerevisiae, UniProt P38862 1-630, deletion of residues 290–294)", "T1 sequence (looked up)": "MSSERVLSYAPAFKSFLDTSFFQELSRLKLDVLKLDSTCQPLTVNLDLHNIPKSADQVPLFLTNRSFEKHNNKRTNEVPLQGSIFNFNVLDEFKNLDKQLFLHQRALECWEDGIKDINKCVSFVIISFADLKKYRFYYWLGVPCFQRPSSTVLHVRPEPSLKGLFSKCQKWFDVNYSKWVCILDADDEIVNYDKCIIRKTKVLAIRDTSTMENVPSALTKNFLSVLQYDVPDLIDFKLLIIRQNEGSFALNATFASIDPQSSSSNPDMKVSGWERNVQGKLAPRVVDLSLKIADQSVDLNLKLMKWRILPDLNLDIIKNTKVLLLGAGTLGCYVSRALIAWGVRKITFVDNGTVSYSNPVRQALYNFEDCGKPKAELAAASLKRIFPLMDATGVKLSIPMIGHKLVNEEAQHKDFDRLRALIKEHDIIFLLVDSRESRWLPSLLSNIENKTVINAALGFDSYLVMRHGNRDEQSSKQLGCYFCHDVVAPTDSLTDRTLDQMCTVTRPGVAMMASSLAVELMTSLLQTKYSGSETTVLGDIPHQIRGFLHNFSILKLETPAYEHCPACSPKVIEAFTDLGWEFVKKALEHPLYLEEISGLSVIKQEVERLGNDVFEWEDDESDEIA", "experiment": "cross-linking"}, "[4]": {"target": "T2, Atg7 with a Gly-Gly-Ser-Gly insertion after Leu291 (S. cerevisiae, UniProt P38862 1-630, Gly-Gly-Ser-Gly insertion after Atg7’s Leu291)", "T2 sequence (looked up)": "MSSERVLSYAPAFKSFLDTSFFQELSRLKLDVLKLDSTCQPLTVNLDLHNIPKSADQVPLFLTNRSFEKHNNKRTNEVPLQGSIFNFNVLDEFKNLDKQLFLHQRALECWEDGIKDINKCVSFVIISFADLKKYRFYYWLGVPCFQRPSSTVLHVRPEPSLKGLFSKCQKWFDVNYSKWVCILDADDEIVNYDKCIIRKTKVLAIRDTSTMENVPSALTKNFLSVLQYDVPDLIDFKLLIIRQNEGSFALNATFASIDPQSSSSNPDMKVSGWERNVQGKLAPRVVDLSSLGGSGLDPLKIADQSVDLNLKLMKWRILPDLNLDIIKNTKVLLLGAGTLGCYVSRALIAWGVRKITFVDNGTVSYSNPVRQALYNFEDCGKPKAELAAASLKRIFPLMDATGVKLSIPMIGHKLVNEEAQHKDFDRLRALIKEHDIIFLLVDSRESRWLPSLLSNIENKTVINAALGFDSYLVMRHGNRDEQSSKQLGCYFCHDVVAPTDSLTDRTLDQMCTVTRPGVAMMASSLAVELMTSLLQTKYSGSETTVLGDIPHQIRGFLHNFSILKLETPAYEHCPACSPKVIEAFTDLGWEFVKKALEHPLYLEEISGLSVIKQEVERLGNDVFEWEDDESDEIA", "experiment": "cross-linking"}, "Atg7 P283D": {"target": "T3, Atg7 P283D (S. cerevisiae, UniProt P38862 1-630, P283D)", "T3 sequence (looked up)": "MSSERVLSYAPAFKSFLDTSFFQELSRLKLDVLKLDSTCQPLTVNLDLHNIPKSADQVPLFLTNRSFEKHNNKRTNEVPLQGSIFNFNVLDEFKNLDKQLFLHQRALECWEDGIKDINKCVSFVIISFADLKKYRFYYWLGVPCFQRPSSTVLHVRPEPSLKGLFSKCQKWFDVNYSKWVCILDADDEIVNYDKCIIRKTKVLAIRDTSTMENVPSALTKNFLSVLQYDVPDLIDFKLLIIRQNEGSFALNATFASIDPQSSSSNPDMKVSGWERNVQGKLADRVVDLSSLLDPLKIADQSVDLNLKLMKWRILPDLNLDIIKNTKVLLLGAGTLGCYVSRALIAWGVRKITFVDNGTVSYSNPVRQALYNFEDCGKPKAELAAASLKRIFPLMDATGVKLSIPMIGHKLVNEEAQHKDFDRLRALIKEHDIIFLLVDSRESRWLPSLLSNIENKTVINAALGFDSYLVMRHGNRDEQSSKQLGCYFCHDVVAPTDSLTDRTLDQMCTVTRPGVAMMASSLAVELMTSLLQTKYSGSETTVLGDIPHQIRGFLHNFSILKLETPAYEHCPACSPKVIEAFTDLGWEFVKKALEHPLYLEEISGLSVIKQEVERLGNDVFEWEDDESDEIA", "experiment": "cross-linking"}}, "note": "Numbering of substitutions follows the chain as printed. Numbers in names are those of the source. Read-outs that look alike come from different tables or passages of the source.", "data": [{"binder": "B1", "values": [{"measurement": "stoichiometry N", "setting": "crystal structure [1]", "result": 2}]}, {"binder": "B2", "values": [{"measurement": "stoichiometry N", "setting": "crystal structure [2]", "result": 2}]}, {"binder": "B3", "values": [{"measurement": "binding result", "setting": "[3]", "result": "binds"}, {"measurement": "binding result", "setting": "[4]", "result": "binds"}, {"measurement": "binding result", "setting": "Atg7 P283D", "result": "binds"}]}]}
